{
  "source": "patent US20260009052",
  "about": "“CAS12 PROTEINS AND USES THEREOF” (GUANGZHOU REFORGENE MEDICINE CO., LTD., published 2026)",
  "binders": {"B1": {"name": "C12-279 Reporter3 sgRNA ; Reporter3 target (ssRNA ; dsDNA)", "RNA": "GUAAUGCGUCUCCCAUUGACGCCUCACCUCGCGACGCAAUGAUG", "DNA 1": "CTCACCTCGCGACGCAATGATG", "DNA 2": "CATCATTGCGTCGCGAGGTGAG"}},
  "key": {"C12-279 Mut-02": {"biological_target": "T1, C12-279 Mut-02 (synthetic construct, Q186R,D352R)", "T1 chain": "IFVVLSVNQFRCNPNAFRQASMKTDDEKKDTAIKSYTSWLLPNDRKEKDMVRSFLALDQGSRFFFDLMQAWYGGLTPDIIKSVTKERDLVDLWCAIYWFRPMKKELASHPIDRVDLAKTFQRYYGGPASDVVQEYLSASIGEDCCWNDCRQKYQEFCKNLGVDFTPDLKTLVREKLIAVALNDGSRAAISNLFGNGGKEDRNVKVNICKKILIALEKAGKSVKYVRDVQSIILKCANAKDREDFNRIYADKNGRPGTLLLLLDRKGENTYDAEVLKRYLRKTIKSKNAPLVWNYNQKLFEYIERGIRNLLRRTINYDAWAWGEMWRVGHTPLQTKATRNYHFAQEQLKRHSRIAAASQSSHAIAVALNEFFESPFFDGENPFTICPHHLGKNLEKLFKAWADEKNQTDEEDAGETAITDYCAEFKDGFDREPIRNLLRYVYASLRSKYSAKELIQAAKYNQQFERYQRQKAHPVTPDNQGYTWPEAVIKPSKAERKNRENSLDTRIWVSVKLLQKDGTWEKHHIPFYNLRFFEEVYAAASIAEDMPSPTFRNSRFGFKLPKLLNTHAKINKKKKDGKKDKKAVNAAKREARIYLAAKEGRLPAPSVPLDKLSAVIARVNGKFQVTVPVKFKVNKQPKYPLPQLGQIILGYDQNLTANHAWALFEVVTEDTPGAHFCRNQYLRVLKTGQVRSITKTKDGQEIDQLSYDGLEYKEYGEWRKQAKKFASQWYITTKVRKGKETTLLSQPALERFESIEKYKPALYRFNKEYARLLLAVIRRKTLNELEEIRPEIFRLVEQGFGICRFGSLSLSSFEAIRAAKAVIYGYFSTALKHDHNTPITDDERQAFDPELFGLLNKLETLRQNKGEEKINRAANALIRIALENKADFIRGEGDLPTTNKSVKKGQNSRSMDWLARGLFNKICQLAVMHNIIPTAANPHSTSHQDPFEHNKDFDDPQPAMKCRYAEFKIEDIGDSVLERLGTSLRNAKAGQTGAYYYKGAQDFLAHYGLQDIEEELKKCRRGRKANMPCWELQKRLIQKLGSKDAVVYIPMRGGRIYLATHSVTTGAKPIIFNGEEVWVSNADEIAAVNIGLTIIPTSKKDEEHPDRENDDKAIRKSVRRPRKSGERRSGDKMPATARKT", "assay": "cell_activity; PAM TTG; +/-0.25", "experimental": "(§1) Transfection: transfection was performed 12-14 h after plating. 1.5 μL PEI (Yeasen Biotechnology, 40815ES03, Polyethylenimine Linear (PEI) MW25000) and 500 ng mutation clone plasmid were added to 100 μL Opti-MEM per well of the 24-well plate, mixed, and added to the NAAN cell line for cell transfection after placing at room temperature for 20 min. After overnight transfection, a fresh culture medium was replaced, and the culture was continued for 72 h, followed by flow cytometry. Editing efficiencies of different mutant clones were characterized by the proportion of GFP-positive cells.\n(§2) Editing efficiency of some selected mutants was tested in Reporter3 cell line using the same manner as described for the NAAN reporter system, except that the cell line was changed from NAAN cell line to Reporter3 cell line."}, "C12-279 L260R": {"biological_target": "T2, C12-279 L260R (synthetic construct, L260R)", "T2 chain": "T1 chain with R186Q, L260R, R352D", "assay": "cell_activity; PAM TTG; +/-0.14", "experimental": "as §1, §2"}},
  "note": "Substitutions are numbered along the chain they refer to.",
  "data": [
    {"binder": "B1", "values": [
      {"measurement": "binding signal", "setting": "C12-279 Mut-02", "value": "1.39 fold of C12-279"},
      {"measurement": "binding signal", "setting": "C12-279 L260R", "value": "0.66 fold of C12-279"}
    ]}
  ]
}
